These results are taken from paper PMC12511343, “Structural insights into Cir-mediated killing by the antimicrobial protein Microcin V” (Communications Biology, 2025).

Residue numbers refer to the chain shown, from its start.

Assay [1] deals with D85A and D85R (MccV mutants, as a group). Nature of the assay: BLI; biotinylated MccV (100 nM) loaded on streptavidin SA-XT sensors, Cir in twofold dilutions 5 uM to 78 nM in PBS-T; 300 s association, 240 s dissociation; first 30 s of association and dissociation fit to a 1:1 global model.
Assay [2] deals with T1, 4-Met substituted E. coli Cir (colicin Ia receptor), the paper's wildtype (WT) Cir (E. coli, UniProt P17315 26-663, W338 mutated to methionine | L343 mutated to methionine | F589 mutated to …).
T1 construct: Cir (colicin Ia receptor, TonB-dependent transporter), E. coli, mature coding region of cirA with four residues changed to methionine (4-Met); No TEV cleavage of Cir is described; also called apo-Cir; His-tagged Cir; not shown: His10, N-terminal, kept
T1 sequence (looked up): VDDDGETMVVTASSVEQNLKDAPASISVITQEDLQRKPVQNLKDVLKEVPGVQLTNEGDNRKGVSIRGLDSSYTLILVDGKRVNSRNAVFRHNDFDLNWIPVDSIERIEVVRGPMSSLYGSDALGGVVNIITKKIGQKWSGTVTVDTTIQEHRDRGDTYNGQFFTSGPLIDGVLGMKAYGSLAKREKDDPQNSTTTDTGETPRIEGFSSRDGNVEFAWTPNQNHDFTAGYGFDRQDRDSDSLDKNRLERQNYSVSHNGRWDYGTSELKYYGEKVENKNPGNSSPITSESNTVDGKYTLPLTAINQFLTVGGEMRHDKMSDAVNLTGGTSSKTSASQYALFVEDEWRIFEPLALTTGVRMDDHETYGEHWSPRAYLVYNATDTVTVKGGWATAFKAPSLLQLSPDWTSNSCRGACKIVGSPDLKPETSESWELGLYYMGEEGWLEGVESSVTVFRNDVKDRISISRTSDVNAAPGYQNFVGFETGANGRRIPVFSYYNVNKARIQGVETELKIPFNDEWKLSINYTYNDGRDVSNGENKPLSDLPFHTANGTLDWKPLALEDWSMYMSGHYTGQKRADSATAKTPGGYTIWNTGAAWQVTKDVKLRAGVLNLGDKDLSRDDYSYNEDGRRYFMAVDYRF
The description is as above. Conditions: both partners purified.

Assay [3] concerns the target T1, 4-Met substituted E. coli Cir (colicin …). Description: AUC; sedimentation velocity, NAPol-solubilised Cir and its mixtures with MccV in phosphate-buffered saline, 50,000 rpm, 20 C; single-site model. Conditions: both partners purified.
Assay [4] deals with T2, Cir TonB Box mutant M33C/V35P (in 4-Met Cir) (E. coli, UniProt P17315 26-663, W338 mutated to methionine | L343 mutated to methionine | F589 mutated to …).
T2 sequence: T1 sequence (looked up) with M8C, V10P
Description: BLI.

Assay [5] has as its target T3, Cir R436E/R490E (in 4-Met Cir) (E. coli, UniProt P17315 26-663, W338 mutated to methionine | L343 mutated to methionine | F589 mutated to …).
T3 sequence: T1 sequence (looked up) with R411E, R465E
Nature of the assay: BLI. (Biolayer interferometry detects binding as a change in optical thickness at a sensor tip.)

The next assay concerns the target T4, Cir C435A (in 4-Met Cir) (E. coli, UniProt P17315 26-663, W338 mutated to methionine | L343 mutated to methionine | F589 mutated to …).
T4 sequence: T1 sequence (looked up) with C410A
Description: BLI.

Assay [6] addresses T1, 4-Met substituted E. coli Cir (colicin …). Nature of the assay: BLI; biotinylated MccV (100 nM) on streptavidin sensors, WT Cir 5 uM to 78 nM in PBS-T; steady state equilibrium, 1:1 binding model; incomplete equilibrium during the association phase. Particulars: both partners purified.
The target is the same in assay [7]. Nature of the assay: BLI + AUC; stoichiometry reported from the concurrence of BLI (1:1 model) and SV-AUC (single-site model). Particulars: both partners purified.

B1: 4-Met substituted E. coli Cir (colicin Ia receptor), the paper's wildtype (WT) Cir (receptor)
chain: T1 sequence (looked up)
For B1, the percent reduction in response shift relative to WT at 5 μM probe in assay [1] was 40 to 45%.

B2: Microcin V (MccV), mature, wildtype (natural protein, E. coli, UniProt P22522 16-103, looked up)
chain: ASGRDIAMAIGTLSGQFVAGGIGAAAGGVAGGAIYDYASTHKPNPAMSPSGLGGTIKQKPEGIPSEAWNYAAGRLCNWSPNNLSDVCL
modifications: biotinylated (EZ-Link Sulfo-NHS-LC kit) for BLI and ELISA; not labelled for cryo-EM and SV-AUC
notes: Only residues 57-88 (mature numbering) were resolved in the map; also called WT MccV; Colicin V; source: E. coli BL21 (DE3), purified (HisTrap as His6-MBP fusion, TEV cleavage, second nickel column, flowthrough); not shown: His6, N-terminal, cleaved; MBP, N-terminal, cleaved
Usually Kd stands for the constant that tells how readily two partners part at equilibrium. By stoichiometry N is commonly meant a count of units in the complex or per binding partner. On to B2, for which the Kd in assay [2] came out at 155 ± 30 nM; in assay [3] it was 600 ± 200 nM; in assay [4] it was 374 nM; in assay [5] it was 1580 nM; with Cir C435A (in 4-Met Cir), 552 nM; in assay [6], 1700 ± 1200 nM. Also, in assay [7], the “stoichiometry N” value is 1.
